The values below come from paper PMC7346273 (ACS Omega, 2020).

This assay addresses Aβ42 monomer (UniProt P05067 672-713). Put plainly: NMR titration.

Aβ42 monomer, sequence (P05067 672-713): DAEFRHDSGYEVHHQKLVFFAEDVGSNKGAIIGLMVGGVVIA

As to GFLLHQK [P_(active)], the binding result is given as “binds”.
